Reference: patent publication US20210046160A1 (Synthorx, Inc., priority 2019, published 2021)

Tests used:
[1] = molecular target: T1, IL-2 receptor βγ complex (IL-2Rβ and IL-2Rγ subunits) (Homo sapiens, UniProt P14784+P31785); assay: PathHunter IL-2 Cytokine Receptor assay, agonist mode, βγ cell line; format: cell-based; details: for EC50: IL2Rα-negative U2OS cell line, 10 kD PEGylated conjugates, * = 30 kD; for βγ/αβγ ratio: ratio of the EC50 values
T1 construct: host or cells: recombinant human U2OS cell line (PathHunter)
T1 sequence (P14784 27-551): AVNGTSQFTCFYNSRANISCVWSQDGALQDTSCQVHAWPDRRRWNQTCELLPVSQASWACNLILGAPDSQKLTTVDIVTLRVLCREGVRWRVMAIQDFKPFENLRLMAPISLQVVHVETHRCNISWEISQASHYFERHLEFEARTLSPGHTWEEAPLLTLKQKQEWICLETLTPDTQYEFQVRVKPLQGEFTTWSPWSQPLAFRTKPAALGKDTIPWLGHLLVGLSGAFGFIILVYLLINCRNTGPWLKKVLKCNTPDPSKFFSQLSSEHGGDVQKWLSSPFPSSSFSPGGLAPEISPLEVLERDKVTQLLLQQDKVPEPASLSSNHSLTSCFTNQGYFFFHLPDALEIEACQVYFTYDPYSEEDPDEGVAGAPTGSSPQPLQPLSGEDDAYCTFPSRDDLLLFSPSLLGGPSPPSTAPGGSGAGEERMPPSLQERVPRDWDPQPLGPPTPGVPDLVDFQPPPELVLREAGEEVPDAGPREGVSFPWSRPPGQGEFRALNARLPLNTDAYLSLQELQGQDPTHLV
T1 sequence (P31785 23-369): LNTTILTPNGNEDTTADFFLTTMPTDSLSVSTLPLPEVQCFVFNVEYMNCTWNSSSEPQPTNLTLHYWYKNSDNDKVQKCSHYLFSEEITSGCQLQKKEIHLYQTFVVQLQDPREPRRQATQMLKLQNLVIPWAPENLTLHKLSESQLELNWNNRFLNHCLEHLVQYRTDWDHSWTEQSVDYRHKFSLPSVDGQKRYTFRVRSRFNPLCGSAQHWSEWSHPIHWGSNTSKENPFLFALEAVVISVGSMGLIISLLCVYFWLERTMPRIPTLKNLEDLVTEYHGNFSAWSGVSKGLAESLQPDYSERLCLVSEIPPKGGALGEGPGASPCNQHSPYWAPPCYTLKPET
Method: (§1) PathHunter cell lines were expanded from freezer stocks according to standard procedures. Cells were seeded in a total volume of 20 μL into white walled, 384-well microplates and incubated for the appropriate time prior to testing.
(§2) For agonist determination, cells were incubated with sample to induce response. Intermediate dilution of sample stocks was performed to generate 5× sample in assay buffer. About 5 μL of 5× sample was added to cells and incubated at 37° C. for 6 to 16 hours depending on the assay. Vehicle concentration was 1%.
(§3) Assay signal was generated through a single addition of 12.5 or 15 μL (50% v/v) of PathHunter Detection reagent cocktail for agonist and antagonist assays respectively, followed by a one hour incubation at room temperature. For some assays, activity was detected using a high sensitivity detection reagent (PathHunter Flash Kit) to improve assay performance. In these assays, an equal volume of detection reagent (25 or 30 μL) was added to the wells, followed by a one hour incubation at room temperature. Microplates were read following signal generation with a PerkinElmer Envision™ instrument for chemiluminescent signal detection.
(§4) Compound activity was analyzed using CBIS data analysis suite (ChemInnovation, CA). For agonist mode assays, percentage activity was calculated using the following Formula:
(§5) % Activity=100%×(mean RLU of test sample−mean RLU of vehicle control)/(mean MAX RLU control ligand−mean RLU of vehicle control).
(§6) A second cell line has been further engineered to express the IL-2Rα subunit. […] The assay was run in agonist mode to determine the EC50 of each test article, and comparison of dose-response curve profiles between IL2Rα positive and negative cell types allows determination of the contribution of IL2Rα to the observed activity.

[2] = molecular target: T2, IL-2 receptor αβγ complex (Homo sapiens, UniProt P01589+P14784+P31785); assay: PathHunter IL-2 Cytokine Receptor assay, agonist mode, cell line further expressing IL-2Rα; format: cell-based; details: IL2Rα-positive U2OS cell line; 10 kD PEGylated conjugates, * = 30 kD
T2 construct: host or cells: recombinant human U2OS cell line (PathHunter), further engineered to express IL-2Rα
T2 sequence (P01589 22-272): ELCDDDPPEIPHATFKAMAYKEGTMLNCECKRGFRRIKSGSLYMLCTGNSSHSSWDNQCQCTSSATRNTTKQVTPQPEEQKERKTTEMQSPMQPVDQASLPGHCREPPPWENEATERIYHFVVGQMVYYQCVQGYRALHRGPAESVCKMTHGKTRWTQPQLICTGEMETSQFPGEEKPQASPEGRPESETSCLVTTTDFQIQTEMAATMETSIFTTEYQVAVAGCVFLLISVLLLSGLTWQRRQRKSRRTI
T2 sequence (P14784 27-551): T1 sequence (P14784 27-551)
T2 sequence (P31785 23-369): T1 sequence (P31785 23-369)
Method: as §1, §2, §3, §4, §5, §6

[3] = PK study E3826-U1704 in naïve C57BL/6 mice (human IL-2 ELISA of plasma); format: in vivo; details: for t½: 0.3 mg/kg
Method: (§7) Terminal blood samples were collected via cardiac puncture at the points indicated. […] Plasma and blood cells (in both studies) and tumors in study E3826-U1803 were collected for PK and PD analyses.
Bioanalysis of plasma samples was performed using a qualified human IL-2 ELISA assay (Abcam, Cambridge, UK). Concentrations of Aldesleukin, E62_30kD and P65_30kD and the internal standard in samples derived from plasma were determined using an ELISA assay. […] The PK data were imported into Phoenix WinNonlin v6.4 (Certara/Pharsight, Princeton, N.J.) for analysis. The group mean plasma concentration versus time data were analyzed with noncompartmental methods using an IV bolus administration model.

[4] = system: pSTAT5 and proliferation in CD8+ T, NK and Treg cells; assay: Pharmacodynamics in peripheral blood compartment (pSTAT5, Ki-67, cell counts), Example 5; format: in vivo, C57BL/6 mice; details: mice
Excerpt: as §7
STAT5 phosphorylation and induction of cell proliferation (the early molecular marker Ki-67 and cell counts) was used as pharmacodynamics readouts to assess the pharmacological profile of P65_30kD relative to its pharmacokinetics.

[5] = MTD / toxicology study E3826-U1802 in naïve Balb/c mice (hematology, histopathology, organ weight, cytokines); format: in vivo; details: Balb/c mice
Method: A dose ranging study of P65_30kD was conducted in naïve female Balb/c mice at Crown Biosciences, Inc. (San Diego, Calif.). […] Blood samples were drawn via sub mandibular vein at 8 time points (0.25, 1, 4, 12, 24, 34, 48 & 72 h).
A major of toxicity associated with high-dose aldesleukin is vascular leak syndrome and associated Cytokine Release Syndrome (CRS). […] The analysis performed was hematology, histopathology, organ weight, and cytokine analyses.

[6] = C57BL/6 female mice, single IV bolus 0.3 mg/kg, E62_5 kD from a separate study

Substance: E62: Table 2: 10 kD PEGylated IL-2 conjugate at site E62 [Compound E62]
- EC50 [1]: 3 nM
- βγ/αβγ ratio [1]: 2
- EC50 [2]: 1.5 nM

Substance: E68: Table 2: 10 kD PEGylated IL-2 conjugate at site E68 [Compound E68]
- EC50 [1]: 7.7 nM
- βγ/αβγ ratio [1]: 86
- EC50 [2]: 0.0893 nM

Substance: F42: Table 2: 10 kD PEGylated IL-2 conjugate at site F42 [Compound F42]
- EC50 [1]: 6.09 nM
- βγ/αβγ ratio [1]: 12
- EC50 [2]: 0.515 nM

Substance: K35: Table 2: 10 kD PEGylated IL-2 conjugate at site K35 [Compound K35]
- EC50 [1]: 6.75 nM
- βγ/αβγ ratio [1]: 45
- EC50 [2]: 0.15 nM

Substance: K43: Table 2: 10 kD PEGylated IL-2 conjugate at site K43 [Compound K43]
- EC50 [1]: 9.84 nM
- βγ/αβγ ratio [1]: 75
- EC50 [2]: 0.131 nM

Substance: R38: Table 2: 10 kD PEGylated IL-2 conjugate at site R38 [Compound R38]
- EC50 [1]: 4.16 nM
- βγ/αβγ ratio [1]: 25
- EC50 [2]: 0.165 nM

Substance: T41: Table 2: 10 kD PEGylated IL-2 conjugate at site T41 [Compound T41]
- EC50 [1]: 6.37 nM
- βγ/αβγ ratio [1]: 130
- EC50 [2]: 0.0489 nM

Substance: V69: Table 2: 30 kD PEGylated IL-2 conjugate at site V69 [Compound V69]
- EC50 [1]: 9.99 nM
- βγ/αβγ ratio [1]: 121
- EC50 [2]: 0.083 nM

Substance: Y45: Table 2: 30 kD PEGylated IL-2 conjugate at site Y45 [Compound Y45]
- EC50 [1]: 9.06 nM
- βγ/αβγ ratio [1]: 83
- EC50 [2]: 0.11 nM

Substance: aldesleukin [reference compound]
- AUC0-t [3, 6]: 229 ng·h/mL
- AUCINF [3, 6]: 230 ng·h/mL
- CL [3, 6]: 21.67 mL/min/kg
- Cmax [3, 6]: 884 ng/mL
- Tmax [3, 6]: 1.8 min
- Vss (distribution volume) [3, 6]: 0.39 L/kg
- t½ [3, 6]: 34.4 min
- t½ ([3]; C57BL/6 female mice, single IV bolus 0.3 mg/kg, E62_5 kD from a separate study, listed as aldesleukin): 34.2 min
- mean plasma concentrations measurable out to (post-dose) ([3]; single IV bolus, 120 h = last measured time point): 4 h
- pSTAT5 induction returned to baseline after [4]: 2 h
- systemic levels of IFNγ [5]: transient elevation
- plasma IL-5 levels ([5]; dose range 0.01-5.0 mg/kg): elevated plasma IL-5 levels starting at 1 mg/kg to 5 mg/kg
- hematology, histopathology or body weights relative to vehicle control ([5]; P65_30kD single IV 0.01-5.0 mg/kg, aldesleukin IV BID × 3): Abnormalities were not observed
